Laboratory results published in the nanobody polyreactivity screen of Harvey et al. (2022).

Assay: yeast display, Sf9 membrane polyspecificity reagent, FACS + sequencing; frameworks hold sequencing errors
Procedure, shortened: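 Using colony PCR, genes from sorted yeast display clones were amplified, then sequenced on MiSeq at 2 × 250 and filtered by CDR length. The clones had been stained with 10% biotinylated, detergent-solubilized Sf9 membrane reagent for 1 hour at 4 °C and sorted by FACS into low and high (top ~1%) gates on anti-HA and streptavidin fluorescence. Polyreactivity labels come from the gate of origin.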

Sequence	polyreactivity (PSR sort gate)
QVHLVDSGGGLVQAGGSLRLSCAASGFTFWRYTMGWYRQAPGKERELVAAISGGTTTYYADSVKGRFTISRDNAKNTVYLQMNSLKPEDTAVYYCAAYSQRARTYDYWGQGTQVTVSS	high polyreactivity
QVHLVDSGGGLVQAGGSLRLSCATSGRIFGAYAMVWYRQAPGKESELVAAITSRGGNTYYADSVKGRFTISRDNAKNTVYLQMNSLKPEDTAVYYCAAGHDKRRQYYVGQSAFDYWGQGTQLTVSS	low polyreactivity
QVHLVDSGGGLVQAGGSLRLSCPASGFIFGLYVMGCYRQSPGKERELVAAITTSVGSTYYADSVKGRFTISRDNAKNTVYLQMNSLKPEDTSVYYCAKTSGTIDYDYWGQGTQVTVSS	low polyreactivity
QVHLVDSGGGLVQAGGSLRLSCPASGLTFPSNSMGCYRQAPGKERELVAAISKRGGRTYYADSVKGRFTISRDNAKNTVYLQMNSLKPEDTAVYYCATLYAYPGTVQYAGYNYWGQGTQVTVSS	high polyreactivity
QVHLVDSGGGLVQAGGSLSLSCAASGIIFLTNAMGWYRQAPGTERELVAAITAIGGSTYYADSVKGSFTISRDTSKYTVYLQMNSLKPEDTAGYYCAADFSYVYYLYDYWGQGTQVTVSS	low polyreactivity
QVHLVDSGGGLVQAGGSLSLSCAPSGTTFHPYAMGCYRHAPGKEREFVATISGSAGSTYYADSVKGRFKISRDNAKNTVYLQMNSLKPEDTAVYYCNADSGWFGYDYWGQGTQVTVSS	low polyreactivity
QVHLVEAGVGLVQAGGSLRVSCAASGFTFCRYAMVWYRQAPGKERELVAAIRYSGSSTYYADSVKGRFTISRDNAKNTVYLQMNSLKPEDTAVYYCAKRYYGNDYWGQGTQVTVSS	high polyreactivity
QVHLVESAGGLVQAGGSLRLSCDASGRTFYPNAMGWYRQKHGQERELVAGIRSSGESTYYEDSVKGRFTISRDNAKTTVYLQMNSLKQEDTAVYYGIRDLTPSYDFWGQGSQVTVSS	low polyreactivity
QVHLVESAGGLVQAGGSLRLTCAASGSTFLFYAMGMYRQAPGKERELVAAISRSGTSTYYADSVKGRFTISRDNAKNTVYLQMNSLKPEDTAVYYCAADDYGGYYYWGQGTQVTVSS	high polyreactivity
QVHLVESGAGLVQAGGSLRISCAASGIIFRLYGLGWYRQAPGKERELVAGINTGGSTSADSVKGRFTISRDNAKNTVYLQMNSLKPEDTAVYYCARDPGYYHPWYRYDYWGQGTQVTVSS	low polyreactivity
QVHLVESGAGLVQAGGSLRLSCAASGGIFWVYAMGWYRQAPGKERELGAAISNSDTSTSYADSVKGRFTISRDNAKNTVYLQMTSLKPEDTAVYYCNADSPSLSGDYWGQGTQVTVSS	low polyreactivity
QVHLVESGGALVQAGGRLRLSCAASGSIFGRNAMGWYRQAPGKERELVAVISKRSGNTYYADSVKGRFTISRDNAKNTVYLQMNSLKPEHTAVYYCNAVDQKLLRYDYWGQGTEVTVSS	high polyreactivity
QVHLVESGGALVQAGGSLRLSCAASGNTFNANAMGWYRQAPGKERELVAVISANGGRTYYADSVKGRFTISRDNAKNTVYLQMNSLIPEDTAVYYCAADSSGEYPGGYWGQGTQVTVSS	low polyreactivity
QVHLVESGGCLVQAGGSLRLSCAASGFTITYNAMGWYRQAPGKEREFVAAITNNGSTYYADSVKGRFTISRDNAMNTVYFQMNSLKPEDTAVYYCAVDPGYYDEYNYWGQGTHVTVSS	low polyreactivity
QVHLVESGGCLVQAGGSLRLSCAASGITFGYYAMGWYRQAPGKERELVAAITTRGGSTSDADSVKGRFTISRDNAKNTVYFQMNSLKPEDNAVYYCAARWRQRKSVRYGQHGYDYWGQGTQVTVSS	high polyreactivity
QVHLVESGGCLVQAGGTLRLSCAASGFTYKWYAMGWYRQAPGKERELVATITIGGRTNYADSVKGRFTISRDNAKNTVYLQMNSLKTEETAVYYCATYFVGLRLSDYDYWGQGTQVTVSS	low polyreactivity
QVHLVESGGGFFQAGGSLRLSCAASVITFPLYAMGWYRPAPGKERELVSAISRNGGRTYYADSVKGRFTISRDNAKNTVYLQMNSLKPEDTAVYYCAKVSRGSVSSPRDDYWGQGTQVNVSS	high polyreactivity
QVHLVESGGGLDQAGGSLRLSCAASGSIFPHNAMVWYIQAPGKERELVASITSRCGITYYADSVKGRFTISRDNAKNTVYLQMNRLKPEDTAVYYCAARNNVEYLTIYKPYSFGSDSWGQGTQVTVSS	low polyreactivity
QVHLVESGGGLDQAGGSLRLSSAASGSIFDKYAMVWYRQAPGKERELVAAITSGGRTYYADSVKGRFTISRDNAKNTVYLQMNSLKPEDTAVYYCAAGARRSYYPSQYYYWGQGTQVTVSS	low polyreactivity
QVHLVESGGGLLQAGGSLRLSCAASGITFSRNVMGWYIQAPGKERELVAAISTSGGSTYYADSVKGRFTISRDNAKNTVYLQMNSLKPEDTAGYYCAKDITVTYPGLDYDYWGQGTQVTVSS	low polyreactivity
QVHLVESGGGLVEAVGSLRLSCAASGRIFARYAMGCYRQAPGKERQLVATITRVGSTNYADSVKRPFTISRDNAKTTVYLQMNSLKPEDTEGFYCNADIRRNGGYAHEYWVQGTQVTVSS	low polyreactivity
QVHLVESGGGLVHAGGSLRLSCAASGSTFYPYAMGWYRQAPGKERELVAAISISGTTYYADSVKGRFTISRDNAKNTVYLQMNCLKPEDTAVYYCAKRAWVRRYPGRVGYNMYYWGQGTQVSVSS	high polyreactivity

Sequence	polyreactivity (PSR sort gate)
QVHLVESGGGLVHAGGSLRLSCAASGSTFYYYAMGWYRQAPGKERELVAAIRLRGGGTYADSVKGRFTISRDNAKNTFYLQMNSLKPEDTAVYYCAARVWYHGTQFGYWGQGTQVTVSS	high polyreactivity
QVHLVESGGGLVQAAGSLRLSCAASGITFAPYAMGWYRQAPGKERELVAGINTGGSTYYADSVKGRFTISRDKEKNTVYLQMNSLKPEDTAFYYCATDSYPADQDIPGCDYWGQGTQVTVSS	low polyreactivity
QVHLVESGGGLVQAAGSLRLSCAASGRIFSYNAMGWYRPAPGKERELVAAISSDGSTYYADSVKGRFTISRDNAKNTVYLQMNSLKPEDTAVYYCAASQVVWFDYTTAQVGSYKVNYWGQGTQVSVSS	low polyreactivity
QVHLVESGGGLVQAGGILRLSCAASGFIFLQYTMGWYRPAPGKERELVAGISWSGDSTYYADSVKGRFTISRDNAKNTVYLQMNSLKPEDTAVYYCNADWRAAGSDFAFGNPQLYDDWGQGSQVTVSS	low polyreactivity
QVHLVESGGGLVQAGGRLRLSCAASGRTFFWYAMGWYRQAPGKEREFVAAITWRTGSTYYADSVKGRFTLSRDNAKNTVYLQMNSLKPEDTAVYYCAGEFPWSFATYYSWGQGTQVTVSS	high polyreactivity
QVHLVESGGGLVQAGGRLRLSCAASGSIFPGYAMGWYRQAPGKERELVAAITFSGGSTYYADSLKGRFTISRDNAKNTVYLQMNSLKPEDTAVYYCAAPGWYGGYPSYYEYGYWGQGTQVTVSS	low polyreactivity
QVHLVESGGGLVQAGGSLLLSCAASGRILGPNAMGWYIQAPGKERELVAAINSGGSTNYADSVKGRFTISRDNAKNTVYLQMNSLKAEDTAVYYCNAVYGVYDFNYWGQGTQVTVSS	low polyreactivity
QVHLVESGGGLVQAGGSLRISCSASGPSYTHYAMGWYRQAPGKERELVASICDGGGTHYADSVKGRFTISRDNAKNTVYLEMKSLKPEDTAVYYCATYRYPTRRYDYWGQGTQVPVSS	low polyreactivity
QVHLVESGGGLVQAGGSLRLCCAASGSILVSYAMGWYRQAAGKERELVAAITYTGGNTYYADSGKGRFTISRDNAKNTVYVQLNSQKPEDTAVYYCNAGWTQTSVTFDYWGQGTQVTVSS	low polyreactivity
QVHLVESGGGLVQAGGSLRLICAASGISFLAYAMGCYRHAPRKERELVAAISTDGGSTYYADSVKGRFTISRDNAKNTVYLQMNSLKPVYTAVYYCAAKQRYVRTRGMDYWGQGTQVTVSS	high polyreactivity
QVHLVESGGGLVQAGGSLRLICAASGSIFPRNAMGWYRQAPGKERELVARINSGGTTKYADSVKGRFTISRDNAKNTVFLQMNSLKPEDTAVYYCNADTYILDPLRKSYGYDYWGQGTQVTVSS	low polyreactivity
QVHLVESGGGLVQAGGSLRLICAASGYIFPYYSMGWYRQAPGKERELVAGITTDGSSTYYADSVKGRFTISRDNAKKTVYLQMNSLKPEDTAVYYCYGYPGYTWGWYDFWGQGSQVTVSS	low polyreactivity
QVHLVESGGGLVQAGGSLRLICAAYRRTLGGNAMGWYRQAPGKERELVAPITHSASTYADSVKGRFTISRDNAKNTVYLQMNSLKPEDTAVYYCNAPDPSDQHGDYWGQGTQVTVSS	low polyreactivity
QVHLVESGGGLVQAGGSLRLRCAASGLTSTNNAMGWYRQAPGKERELVAAITSGSTTNYADSVKGRFTISRDNAKNTVYLQMNSLNPEDTAVYYCAAQYGVWWRGYYYPEYDYWGEGTQVTVSS	low polyreactivity
QVHLVESGGGLVQAGGSLRLRCAASGSISGRYAMGWYRQAPGKERELVAAISWIGGSTYYADSVKGRFTISRDNAKNTVYLQMNSLKPEDTAVYYCNVSIDTRTHPLLVVFYGYDYWGQGTQVSVSS	low polyreactivity
QVHLVESGGGLVQAGGSLRLRCAASGSTFGYYAMGWYRQAPGKERELVAAIRGSVTRTYYADSVKGRFTISRDNAKNTVYLEMNSLKPEDTAVYYCAAGSRLGWGSEYWGQGTQVTVSS	high polyreactivity
QVHLVESGGGLVQAGGSLRLSCAASALTDGRYAMGWYRQAPGKERELVADIRYRAGSTNYADSVKGRFTISRDNAKNTVYLQMNSLKPEDTAVYYCAKGHPNDFGYWGQGTQVTVSS	high polyreactivity
QVHLVESGGGLVQAGGSLRLSCAASARIFRYYTMGWNRQAPGKERELVAAISVSGGSTYYADSVKGRFTSSRDNAKNTVYILMNSLKPEDTAVYYCAAPFVWSSYRGYDYWGQGSQVTVSS	high polyreactivity
QVHLVESGGGLVQAGGSLRLSCAASGAMGWYRQAPGKERELVAAISSGNTNYADSVKGRFTISRDNAKNTVYLQMNSLKPEDTAVYYCAAEQPYGQKNTGLGVIDLDYWGQGTQVTVSS	low polyreactivity
QVHLVESGGGLVQAGGSLRLSCAASGFIFLHYAMGWYRQAPGKERELVAAINKSGGSTYYADSVKGRFTSSRDNAMYTDYLQMNSLKPEDTAVYYCNAVYYWFIGDYWGQGTQVTVSS	high polyreactivity
QVHLVESGGGLVQAGGSLRLSCAASGFIFSLYAMGWYRQAPGKERELVAAISKRGGSTNYADSVKGRFTISRDNAKNTVYLQMNSLKPEDTAVYYWAKARPGFLYDHWGQGTQVTVSS	high polyreactivity
